The values below come from US20160090427A1 (SAMSUNG ELECTRONICS, published 2016).

The target of experiment [1] is VEGF (R&D systems) (UniProt P15692-4 27-191, limits assumed). In words: SPR (Biacore T100), CM5 chip, VEGF; format unclear in the text. Here is the method: An examination on whether the 8 anti-c-Met/anti-VEGF bispecific antibodies prepared in Example 2 maintains binding affinity to VEGF was conducted using Biacore T100(GE). VEGF (R&D systems) immobilized on the surface of CM5 chip (#BR-1005-30, GE) by amino coupling according to the manufacturer's instructions. About 90˜120 RU of the anti-c-Met/anti-VEGF bispecific antibody was captured, and […] was injected thereto at various concentrations. Then, a solution containing 1M NaCl and 5 mM NaOH was injected thereto to regenerate the surface. The obtained data were fitted using BlAevaluation software (GE Healthcare, Biacore T100 evaluation software), to measure the binding affinity to VEGF.

Experiment [2] addresses T1, human c-Met/Fc fusion protein (R&D Systems) (human, UniProt P08581 25-932).
T1 construct: Bought reagent; also called c-Met-Fc (#358-MT/CF, R&D Systems); human c-Met/Fc protein; not shown: Fc part of the bought fusion protein
In words: SPR (Biacore T100), bispecific captured by human Fab binder on CM5 chip, c-Met-Fc injected. Here is the method: An examination on whether the anti-c-Met/anti-VEGF bispecific antibody maintains binding affinity to c-Met was conducted using Biacore T100(GE). A human Fab binding agent (GE Healthcare) was immobilized onto a CM5 chip (#BR-1005-30, GE) according to the manufacturer's instructions. About 90˜120 RU of the anti-c-Met/anti-VEGF bispecific antibody was captured, and c-Met-Fc (#358-MT/CF, R&D Systems) was injected thereto at various concentrations. Then, 10 mM Glycine-HCl (pH 2.1) solution was injected thereto to regenerate the surface. The obtained data were fitted using BlAevaluation software (GE Healthcare, Biacore T100 evaluation software), to measure the binding affinity to c-Met.

Experiment [3] deals with T1, human c-Met/Fc fusion protein (R&D …). In words: ELISA, human c-Met/Fc fusion protein coated on plate, hybridoma culture, anti-mouse IgG-HRP. Here is the method: Human c-Met/Fc fusion protein was seeded in an amount of 50 μL (2 μg/mL)/well to microtiter plates and allowed to adhere to the surface of each well. The antibody that remained unbound was removed by washing.
The hybridoma cell culture obtained in Reference Example 1.1.2 was added in an amount of 50 μL to each well of the plates and incubated for 1 hour. The cells remaining unreacted were washed out with a sufficient amount of Tris-buffered saline and Tween 20 (TBST). Goat anti-mouse IgG-horseradish peroxidase (HRP) was added to the plates and incubated for 1 hour at room temperature. The plates were washed with a sufficient amount of TBST, followed by reacting the peroxidase with a substrate (OPD). Absorbance at 450 nm was measured on an ELISA reader.

T1 sequence (P08581 25-932 limits assumed): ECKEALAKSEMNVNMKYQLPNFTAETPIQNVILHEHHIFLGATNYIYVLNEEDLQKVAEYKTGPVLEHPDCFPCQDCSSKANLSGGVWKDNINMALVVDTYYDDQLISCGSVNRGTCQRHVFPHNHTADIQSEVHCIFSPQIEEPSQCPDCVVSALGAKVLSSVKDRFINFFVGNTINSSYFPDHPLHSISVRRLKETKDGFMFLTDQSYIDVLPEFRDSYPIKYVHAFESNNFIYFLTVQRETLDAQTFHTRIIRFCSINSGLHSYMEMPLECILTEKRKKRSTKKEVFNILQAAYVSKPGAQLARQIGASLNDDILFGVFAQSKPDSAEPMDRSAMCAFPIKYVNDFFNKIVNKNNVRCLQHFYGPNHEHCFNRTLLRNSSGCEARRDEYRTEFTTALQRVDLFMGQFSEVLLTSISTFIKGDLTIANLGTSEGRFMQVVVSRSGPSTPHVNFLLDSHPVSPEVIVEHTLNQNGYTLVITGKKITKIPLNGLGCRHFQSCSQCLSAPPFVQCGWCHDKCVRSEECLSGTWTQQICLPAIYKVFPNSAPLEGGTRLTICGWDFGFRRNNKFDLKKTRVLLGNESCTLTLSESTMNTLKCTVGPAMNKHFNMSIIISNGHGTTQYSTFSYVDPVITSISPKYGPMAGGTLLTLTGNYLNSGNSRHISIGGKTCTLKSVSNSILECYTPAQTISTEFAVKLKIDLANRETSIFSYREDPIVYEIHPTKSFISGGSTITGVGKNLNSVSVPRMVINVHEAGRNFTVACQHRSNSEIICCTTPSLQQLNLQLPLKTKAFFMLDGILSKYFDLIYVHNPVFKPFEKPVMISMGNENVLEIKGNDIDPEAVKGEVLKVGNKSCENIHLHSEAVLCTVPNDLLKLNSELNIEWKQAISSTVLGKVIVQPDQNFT
VEGF (R&D systems), sequence (P15692 other isoform, or with tags, fused parts or gaps limits assumed): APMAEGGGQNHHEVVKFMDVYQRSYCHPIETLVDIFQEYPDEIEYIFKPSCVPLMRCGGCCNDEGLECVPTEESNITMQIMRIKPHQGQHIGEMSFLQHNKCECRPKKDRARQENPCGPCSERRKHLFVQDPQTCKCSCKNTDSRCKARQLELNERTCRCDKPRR

B1: MV-21 anti-c-Met/anti-VEGF bispecific antibody (bispecific antibody, human IgG2, kappa)
heavy: EVQLVESGGGLVQPGGSLRLSCAASGFTFTDYYMSWVRQAPGKGLEWLGFIRNKANGYTTEYSASVKGRFTISRDNSKNTLYLQMNSLRAEDTAVYYCARDNWFAYWGQGTLVTVSSASTKGPSVFPLAPCSRSTSESTAALGCLVKDYFPEPVTVSWNSGALTSGVHTFPAVLQSSGLYSLSSVVTVPSSNFGTQTYTCNVDHKPSNTKVDKTVERKCCVECPPCPAPPVAGPSVFLFPPKPKDTLMISRTPEVTCVVVDVSHEDPEVQFNWYVDGVEVHNAKTKPREEQFNSTFRVVSVLTVVHQDWLNGKEYKCKVSNKGLPAPIEKTISKTKGQPREPQVYTLPPSREEMTKNQVSLTCLVKGFYPSDIAVEWESNGQPENNYKTTPPMLDSDGSFFLYSKLTVDKSRWQQGNVFSCSVMHEALHNHYTQKSLSLSPGKGGGGSGGGGSEVQLLESGGGLVQPGGSLRLSCAASGFTFSGYAMSWVRQAPGKGLEWVSGISHDGGNTYYADSVKGRFTISRDNSKNTLYLQMNSLRAEDTAVYYCARDRRKGPSTEFDYWGQGTLVTVSSGGGGSGGGGSGGGGSQSVLTQPPSLSGTPGQRVTISCTGSSSNIGSNSVSWYQQLPGTAPKLLIYDDNNRPSGVPDRFSGSKSGTSASLAISGLRSEDEADYYCGAWDYSLSAYVFGGGTKLTVLG
light: DIQMTQSPSSLSASVGDRVTITCKSSQSLLASGNQNNYLAWYQQKPGKAPKMLIIWASTRVSGVPSRFSGSGSGTDFTLTISSLQPEDFATYYCQQSYSRPYTFGQGTKVEIKRTVAAPSVFIFPPSDEQLKSGTASVVCLLNNFYPREAKVQWKVDNALQSGNSQESVTEQDSKDSTYSLSSTLTLSKADYEKHKVYACEVTHQGLSSPVTKSFNRGEC
In the case of B1, the results for the Kd in experiment [1] and in experiment [2] were 8.27 nM and 0.04 nM, respectively.

B2: MV-22 anti-c-Met/anti-VEGF bispecific antibody (bispecific antibody, human IgG2, kappa)
heavy: EVQLVESGGGLVQPGGSLRLSCAASGFTFTDYYMSWVRQAPGKGLEWLGFIRNKANGYTTEYSASVKGRFTISRDNSKNTLYLQMNSLRAEDTAVYYCARDNWFAYWGQGTLVTVSSASTKGPSVFPLAPCSRSTSESTAALGCLVKDYFPEPVTVSWNSGALTSGVHTFPAVLQSSGLYSLSSVVTVPSSNFGTQTYTCNVDHKPSNTKVDKTVERKCCVECPPCPAPPVAGPSVFLFPPKPKDTLMISRTPEVTCVVVDVSHEDPEVQFNWYVDGVEVHNAKTKPREEQFNSTFRVVSVLTVVHQDWLNGKEYKCKVSNKGLPAPIEKTISKTKGQPREPQVYTLPPSREEMTKNQVSLTCLVKGFYPSDIAVEWESNGQPENNYKTTPPMLDSDGSFFLYSKLTVDKSRWQQGNVFSCSVMHEALHNHYTQKSLSLSPGKGGGGSGGGGSEVQLLESGGGLVQTGGSLRLSCAASGFTFSDYAMSWVRQAPGKGLEWVSWIYPGDSSIYYADSVKGRFTISRDNSKNTLYLQMNSLRAEDTAVYYCARLLSIDQAQLHYYYDAMDVWGQGTLVTVSSGGGGSGGGGSGGGGSQSVLTQPPSPSGTPGQRVTISCTGSSSNIGNYYVYWYQQLPGTAPKLLIYANSHRPSGVPDRFSGSKSGTSASLAISGLRSEDEADYYCGSWDDSLSAYVFGGGTKLTVLG
light: DIQMTQSPSSLSASVGDRVTITCKSSQSLLASGNQNNYLAWYQQKPGKAPKMLIIWASTRVSGVPSRFSGSGSGTDFTLTISSLQPEDFATYYCQQSYSRPYTFGQGTKVEIKRTVAAPSVFIFPPSDEQLKSGTASVVCLLNNFYPREAKVQWKVDNALQSGNSQESVTEQDSKDSTYSLSSTLTLSKADYEKHKVYACEVTHQGLSSPVTKSFNRGEC
On to B2, for which the Kd in experiment [1] came to 2.2 nM; in experiment [2], 0.06 nM.

B3: AbF46, mouse monoclonal antibody to c-Met (antibody, V domains shown)
VH: EVKLVESGGGLVQPGGSLRLSCATSGFTFTDYYMSWVRQPPGKALEWLGFIRNKANGYTTEYSASVKGRFTISRDNSQSILYLQMDTLRAEDSATYYCARDNWFAYWGQGTLVTVSA
VL: DILMTQSPSSLTVSAGEKVTMSCKSSQSLLASGNQNNYLAWHQQKPGRSPKMLIIWASTRVSGVPDRFIGSGSGTDFTLTINSVQAEDLAVYYCQQSYSAPLTFGAGTKLELK
notes: Tested as hybridoma culture supernatant in the selection ELISA; also called antibody of hybridoma KCLRF-BP-00220
For the molecule B3, the binding result in experiment [3] was “binds”.
